{"source": "patent US20190257837", "target": "T1, human recombinant nidogen-1 (intact, incubated without proteases), P14543", "T1 chain": "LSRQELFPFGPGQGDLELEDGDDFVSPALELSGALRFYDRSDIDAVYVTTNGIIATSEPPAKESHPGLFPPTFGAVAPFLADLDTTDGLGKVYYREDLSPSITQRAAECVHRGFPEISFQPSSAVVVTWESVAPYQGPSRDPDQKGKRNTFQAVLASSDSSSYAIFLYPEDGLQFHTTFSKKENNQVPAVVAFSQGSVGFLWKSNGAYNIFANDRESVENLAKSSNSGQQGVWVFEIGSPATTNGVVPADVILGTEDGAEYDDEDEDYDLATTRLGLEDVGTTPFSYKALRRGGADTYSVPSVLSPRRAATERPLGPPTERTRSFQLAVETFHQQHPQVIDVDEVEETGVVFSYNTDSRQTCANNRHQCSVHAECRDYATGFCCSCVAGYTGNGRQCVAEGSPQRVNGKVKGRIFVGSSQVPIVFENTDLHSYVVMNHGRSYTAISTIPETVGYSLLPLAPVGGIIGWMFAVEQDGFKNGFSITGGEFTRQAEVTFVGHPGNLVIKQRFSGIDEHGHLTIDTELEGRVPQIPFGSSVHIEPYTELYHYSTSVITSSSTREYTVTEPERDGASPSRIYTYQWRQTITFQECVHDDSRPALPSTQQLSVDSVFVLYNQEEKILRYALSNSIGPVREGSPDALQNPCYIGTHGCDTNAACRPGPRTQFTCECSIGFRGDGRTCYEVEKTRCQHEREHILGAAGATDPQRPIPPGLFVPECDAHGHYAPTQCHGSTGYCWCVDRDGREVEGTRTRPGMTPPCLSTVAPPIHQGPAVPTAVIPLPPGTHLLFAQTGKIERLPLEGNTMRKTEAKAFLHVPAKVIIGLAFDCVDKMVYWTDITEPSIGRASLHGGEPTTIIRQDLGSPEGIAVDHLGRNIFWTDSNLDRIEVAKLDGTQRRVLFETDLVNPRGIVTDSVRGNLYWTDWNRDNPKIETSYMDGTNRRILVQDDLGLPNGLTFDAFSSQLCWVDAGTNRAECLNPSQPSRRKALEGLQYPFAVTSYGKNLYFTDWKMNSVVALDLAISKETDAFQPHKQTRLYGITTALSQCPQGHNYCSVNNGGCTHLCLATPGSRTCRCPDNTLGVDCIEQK"}
{"protein": "human recombinant cathepsin S (protein) LPDSVDWREKGCVTEVKYQGSCGACWAFSAVGALEAQLKLKTGKLVSLSAQNLVDCSTEKYGNKGCNGGFMTTAFQYIIDNKGIDSDASYPYKAMDQKCQYDSKYRAATCSKYTELPYGREDVLKEAVANKGPVSVGVDARHPSFFLYRSGVYYEPSCTQNVNHGVLVVGYGDLNGKEYWLVKNSWGHNFGEEGYIRMARNKGNHCGIASFPSYPEI", "values": [{"measurement": "NIC levels after incubating nidogen-1 with CatS (competitive NIC ELISA)", "value": "Approximately 5-fold higher levels of NIC were detected after incubating nidogen-1 with CatS for 24 h"}]}
